The record followed here is article doi:10.1101/2022.12.03.518990.

Experiment [1] has as its target GMPCPP-stabilized microtubules (TAMRA-labeled, polymerized from bovine brain tubulin) (bovine) (UniProt Q6B856). The experiment in a line: single-molecule TIRF microscopy, dwell times.
For experiment [2] the target is unchanged. The experiment in a line: single-molecule TIRF microscopy, dwell times. This is another data set of the same source.

Where two headings read alike, the source gives them in different places.

UniProt Q6B856, sequence (Q6B856 whole entry, looked up): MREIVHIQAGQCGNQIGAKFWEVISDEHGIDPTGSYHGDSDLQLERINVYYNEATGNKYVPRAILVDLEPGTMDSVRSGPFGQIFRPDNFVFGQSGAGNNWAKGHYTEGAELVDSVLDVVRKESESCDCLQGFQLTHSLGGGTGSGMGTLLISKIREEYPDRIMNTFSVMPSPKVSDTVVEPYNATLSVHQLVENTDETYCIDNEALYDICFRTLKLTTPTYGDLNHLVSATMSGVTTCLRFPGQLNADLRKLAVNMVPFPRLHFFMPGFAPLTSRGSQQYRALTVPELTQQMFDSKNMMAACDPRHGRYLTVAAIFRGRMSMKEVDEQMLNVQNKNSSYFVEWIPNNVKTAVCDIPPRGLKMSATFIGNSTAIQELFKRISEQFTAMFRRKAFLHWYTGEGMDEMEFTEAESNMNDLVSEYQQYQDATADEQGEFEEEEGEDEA

On to “His-EGFP-L-TOG2-S (EGFP-tagged TOG2 domain and serine-arginine-rich region of human CLASP2α) (domain or fragment)”, for which the mean dwell time in experiment [1] came to 3.8 s; in experiment [2], 0.53 s.
